Test results published in patent publication US9395368B2, “Methods, agents and peptides for inducing an immune response to matrix metalloproteinase-2 expressing tumors” (New York University, priority 2010, dated 2016).

Legend:
[1] = test system: IFNAR1; experiment: IFNAR1 protein expression in DCs (Western blot); format: cell-based, human; conditions: n=7 donors
Experimental: Immature DCs were incubated with MMP-2 (0.5 μg/mL or 5 μg/mL) and poly(I:C)-matured 1 h later. IL-12 levels were measured 16 h later. (A) Results are represented as a percentage of IL-12p70 levels, measured by CBA, produced when DCs were incubated with poly(I:C) only (n=11). (B) For intracellular staining of IL-12p35 and IL-12p40 chains, Brefeldin A was added 4 h after poly(I:C) activation and cells were stained after an additional 12 h incubation. Numbers in the upper right quadrants are the percentages of each population for a representative donor (n=3). (C,D) Immature DCs were incubated with MMP-2 for 1 h (5 μg/mL) before poly(I:C) maturation. Intracellular staining of phosphorylated (Y701) STAT1 (P-STAT1) was performed 3 h later. A representative donor (C) and results for all 3 donors (D) are shown. […] (E) Immature DCs were incubated with MMP-2 and poly(I:C)-matured 1 h later. IFNβ levels were measured by ELISA 16 h later. Results are represented as a percentage of IFNβ levels produced when DCs were incubated with poly(I:C) only (n=9). (F,G) 10^6DCs/lane were treated with 0.1 μg MMP-2 or controls. Poly(I:C) was added 1 h later. IFNAR1 protein expression was detected the next day by Western blot analysis using a rabbit monoclonal antibody. […]
Western blots IFNAR1 and β-actin were detected by Western blot analysis using rabbit and mouse mAbs, respectively. […]

[2] = test system: OX40L expression on DCs; experiment: OX40L expression on DCs by surface staining; format: cell-based, human; conditions: immature and poly(I:C)-matured DCs, n=9, 24 h
Experimental: Immature and poly(I:C)-matured DCs were incubated with active or HI MMP-2 (0.5 μg/mL or 5 μg/mL) for 24 h. MMP-2 enzymatic activity was controlled (FIG. 13C-D). OX40L expression was assessed by surface staining (A) Histogram plots are shown for representative donor HD1228. Isotype control is represented in tinted gray. (B) Mean fluorescent intensities are represented for all 9 donors tested. […] P values≦0.0167 (*) were considered statistically significant using a Bonferroni correction for 3 comparisons for each DC type. See also FIG. 12.
Dendritic cell preparation and activation. PBMCs were purified from healthy—(HD) or cord blood—(CB) donors and plated at 40×10^6 cells/10 mL/dish in complete IMDM with 5% PHS. Cells were allowed to adhere for 2 h at 37° C. Non-adherent cells were removed. The monocyte-enriched fraction was supplemented with 100 UI/mL rhGMCSF and 300 UI/mL rhIL-4 (R&D Systems) on days 0, 2 and 4. Immature DCs were harvested on day 5 and matured using poly(I:C) at 5 μg/mL/10^6 DCs (Amersham) Secretion of IL-12p70, TNFα, IL-1β, IL-6, IL-8 and IL-10 was assessed on both immature and mature DCs using the Human Inflammatory Cytokine Cytometric Bead Array (BD Pharmingen).

B1: active MMP-2: Purified human MMP-2 (mixture of the proenzyme (50%) and the active form (50%)) purchased from Biomol (protein, listed as Homo sapiens)
chain: MEALMARGALTGPLRALCLLGCLLSHAAAAPSPIIKFPGDVAPKTDKELAVQYLNTFYGCPKESCNLFVLKDTLKKMQKFFGLPQTGDLDQNTIETMRKPRCGNPDVANYNFFPRKPKWDKNQITYRIIGYTPDLDPETVDDAFARAFQVWSDVTPLRFSRIHDGEADIMINFGRWEHGDGYPFDGKDGLLAHAFAPGTGVGGDSHFDDDELWTLGEGQVVRVKYGNADGEYCKFPFLFNGKEYNSCTDTGRSDGFLWCSTTYNFEKDGKYGFCPHEALFTMGGNAEGQPCKFPFRFQGTSYDSCTTEGRTDGYRWCGTTEDYDRDKKYGFCPETAMSTVGGNSEGAPCVFPFTFLGNKYESCTSAGRSDGKMWCATTANYDDDRKWGFCPDQGYSLFLVAAHEFGHAMGLEHSQDPGALMAPIYTYTKNFRLSQDDIKGIQELYGASPDIDLGTGPTPTLGPVTPEICKQDIVFDGIAQIRGEIFFFKDRFIWRTVTPRDKPMGPLLVATFWPELPEKIDAVYEAPQEEKAVFFAGNEYWIYSASTLERGYPKPLTSLGLPPDVQRVDAAFNWSKNKKTYIFAGDKFWRYNEVKKKMDPGFPKLIADAWNAIPDNLDAVVDLQGGGHSYFFKGAYYLKLENQSLKSVKFGSIKSDWLGC
[1]
  expression of IFNAR1 chain on DCs: drastically lost expression
[2]
  OX40L expression on DCs: significantly increased
